The source of these data is IntAct's records for PubMed 16388599.

B1: Tyrosine-protein phosphatase non-receptor type 1 (Homo sapiens), P18031 (parent)
chain: MEMEKEFEQIDKSGSWAAIYQDIRHEASDFPCRVAKLPKNKNRNRYRDVSPFDHSRIKLHQEDNDYINASLIKMEEAQRSYILTQGPLPNTCGHFWEMVWEQKSRGVVMLNRVMEKGSLKCAQYWPQKEEKEMIFEDTNLKLTLISEDIKSYYTVRQLELENLTTQETREILHFHYTTWPDFGVPESPASFLNFLFKVRESGSLSPEHGPVVVHCSAGIGRSGTFCLADTCLLLMDKRKDPSSVDIKKVLLEMRKFRMGLIQTADQLRFSYLAVIEGAKFIMGDSSVQDQWKELSHEDLEPPPEHIPPPPRPPKRILEPHNGKCREFFPNHQWVKEETQEDKDCPIKEEKGSPLNAAPYGIESMSQDTEVRSRVVGGSLRGAQAASPAKGEPSLPEKDEDHALSYWKPFLVNMCVATVLTAGAYLCYRFLFNSNT

In this experiment the parent is B1. Particulars: with cav1_human CAV1, Q03135.
cav1_human CAV1, Q03135, sequence (Q03135 whole entry): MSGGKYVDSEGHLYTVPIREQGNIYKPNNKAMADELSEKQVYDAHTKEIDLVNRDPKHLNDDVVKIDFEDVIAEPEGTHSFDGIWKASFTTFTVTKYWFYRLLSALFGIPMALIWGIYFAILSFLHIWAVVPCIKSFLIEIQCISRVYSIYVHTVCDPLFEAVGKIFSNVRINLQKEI
With D181A, the “effect of a mutation on the interaction” value was “disrupting interaction”.
